From patent publication JP2002536968A (dated 2002)

B1: キメラ抗KDR抗体 c-p1C11 (antibody, from another filing)
scFv: QVKLQQSGAELVGSGASVKLSCTTSGFNIKDFYMHWVKQRPEQGLEWIGWIDPENGDSDYAPKFQGKATMTADSSSNTAYLQLSSLTSEDTAVYYCNAYYGDYEGYWGQGTTVTVSSGGGGSGGGGSGGGGSDIELTQSPAIMSASPGEKVTITCSASSSVSYMHWFQQKPGTSPKLWIYSTSNLASGVPARFSGSGSGTSYSLTISRMEAEDAATYYCQQRSSYPFTFGSGTKLEIK
B2: scFv p1C11 (scFv)
chain: B1 scFv

Experiments:
[1] = target: HUVEC上の細胞表面発現KDR (human) (UniProt P35968); assay: cell-based or functional assay
[2] = target: T1, 可溶性融合タンパク質 KDR-AP (human, UniProt P35968 20-764); assay: BIAcore, KDR-AP immobilised, antibody injected at 25-200 nM
T1 construct: extracellular domain; Made in NIH3T3 cells; also called KDR-アルカリ性ホスファターゼ融合タンパク質; 固定化KDR; not shown: human placental alkaline phosphatase (AP), from vector AP-tag

[3] = target: T1, 可溶性融合タンパク質 KDR-AP; assay: BIAcore, KDR-AP immobilised (refers to Table 2)
[4] = target: T1, 可溶性融合タンパク質 KDR-AP; assay: competitive VEGF binding ELISA: antibody mixed with KDR-AP, then on VEGF165-coated plate
[5] = target: T1, 可溶性融合タンパク質 KDR-AP; assay: direct binding ELISA, soluble scFv on KDR-coated plate; concentration for 50% of maximal binding
[6] = target: T1, 可溶性融合タンパク質 KDR-AP; assay: competitive VEGF blocking ELISA: scFv mixed with KDR-AP, then on VEGF165-coated plate
[7] = target: T1, 可溶性融合タンパク質 KDR-AP; assay: BIAcore, KDR-AP immobilised, soluble scFv injected

T1 sequence (P35968 20-764): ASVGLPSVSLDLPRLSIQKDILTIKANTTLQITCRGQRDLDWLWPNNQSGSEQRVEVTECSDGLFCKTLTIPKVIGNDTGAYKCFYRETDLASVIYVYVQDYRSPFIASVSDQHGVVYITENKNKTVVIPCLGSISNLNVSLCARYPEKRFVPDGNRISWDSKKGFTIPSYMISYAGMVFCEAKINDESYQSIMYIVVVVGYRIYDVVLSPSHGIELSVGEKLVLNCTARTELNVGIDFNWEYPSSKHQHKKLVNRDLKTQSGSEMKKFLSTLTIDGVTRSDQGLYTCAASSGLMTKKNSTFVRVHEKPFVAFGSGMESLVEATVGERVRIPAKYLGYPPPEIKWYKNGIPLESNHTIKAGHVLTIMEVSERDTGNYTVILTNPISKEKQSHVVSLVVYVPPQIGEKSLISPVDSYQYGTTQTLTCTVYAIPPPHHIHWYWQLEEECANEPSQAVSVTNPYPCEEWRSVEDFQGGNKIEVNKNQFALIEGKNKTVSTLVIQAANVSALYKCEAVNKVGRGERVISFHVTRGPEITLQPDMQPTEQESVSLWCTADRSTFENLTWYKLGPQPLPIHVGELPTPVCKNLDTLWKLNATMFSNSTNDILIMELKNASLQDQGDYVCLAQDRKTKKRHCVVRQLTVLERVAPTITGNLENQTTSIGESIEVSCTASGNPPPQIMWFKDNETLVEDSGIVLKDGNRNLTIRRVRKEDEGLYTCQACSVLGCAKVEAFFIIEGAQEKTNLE

| Binder | HUVECのVEGF誘導性有糸分裂誘発の50%を抑制するのに必要な抗体濃度 ([3H]-TdR) [1] [nM] | Kd [2] [nM] | fold higher affinity than parent scFv p1C11 [3] [fold] | IC50 [4] [nM] | EC50 [5] [nM] | IC50 [6] [nM] | Kd [7] [nM] |
| --- | --- | --- | --- | --- | --- | --- | --- |
| B1 | 0.8 | 0.82 | 2.5 | 0.8 | – | – | – |
| B2 | – | – | – | 2 | 0.3 | 3 | 2.1 |
